For 51 molecules, Kd results are on record in patent US20200270586A1.

For the first assay, the target named is LgTrip 3546 (with His tag; SEQ ID NO: 51).
Sequence of LgTrip 3546 (with His tag; SEQ ID NO: 51) (chain, as listed by the source): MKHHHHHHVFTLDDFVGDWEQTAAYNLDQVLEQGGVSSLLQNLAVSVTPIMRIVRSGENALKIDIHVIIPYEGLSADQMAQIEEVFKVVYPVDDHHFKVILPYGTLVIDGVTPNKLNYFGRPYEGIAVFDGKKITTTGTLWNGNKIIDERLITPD
Experiment: not given
Particulars: modification not given.
The term Kd denotes the equilibrium constant for the complex coming apart. Molecule SSWKRGSMLFRVWINS [427] showed a Kd of 230 nM.

The target is the same in a further assay. Briefly: luminescence complementation. Particulars: modification not given.
The molecule GKMLFRVTIQKWK [671] displayed a Kd of 20 nM.

A further assay has the same target.
Experiment: not given
Particulars: modification not given. This is another data set of the same source.
In turn, SSWKRMLFRVTINSVS [302] had a Kd of 520 nM.

The next assay shares this target. Briefly: luminescence complementation. Particulars: modification not given. This is another data set of the same source.
GKMLFRVTIESWK [622]: the Kd was 2880 nM.

The next assay shares this target. Put plainly: luminescence complementation; SmTrip9 Kd. Particulars: modification not given.
Consider DKLLFTVTIEKYK [759], for which the Kd turned out to be 330 nM.

For another assay the target is unchanged.
Experiment: not given
Particulars: modification not given. This is another data set of the same source.
In the case of SSKRGSMLFRVTIWSV [428], the Kd was determined as 40 nM.

The target is the same in the next assay. Put plainly: luminescence complementation; SmTrip9 Kd. Particulars: modification not given. The source holds these as a separate data set.
DKLLFTVTIQKYK [757] displayed a Kd of 360 nM.

Another assay has the same target. Put plainly: luminescence complementation. To be noted: modification not given. This is another data set of the same source.
The molecule GKMLFRVTIKSWK [621] showed a Kd of 40 nM.

As for DKLLFKVTIGKWK [750], the Kd was found to be 350 nM.

Molecule GKMLFRVTIQKWK [671] returned a Kd of 60 nM.

Take GKMLFRVTIGNWK [669]: the Kd was determined as 380 nM.

Regarding DKMLFTVTIEKWK [753], the Kd worked out at 120 nM.

Molecule GKMLFRVTIEKWK [703] registered a Kd of 110 nM.

The molecule KLMLFRVTINSWK [653] registered a Kd of 160 nM.

GKMLFRVTIKKWK [673]: the Kd turned out to be 40 nM.

DKMLFRVTIQKWK [738] registered a dissociation constant Kd of 230 nM.

In turn, DKMLFRVTIEKWK [742] displayed a Kd of 750 nM.

Molecule DKMLFRVTIGNWK [740] returned a Kd of 3650 nM.

In turn, GKMLFRVTIESWK [622] registered an equilibrium dissociation constant (Kd) of 7240 nM.

In turn, DKMLFRVTIQNWK [741] showed a Kd of 12600 nM.

In turn, DKMLFKVTIGKWK [748] had an equilibrium dissociation constant (Kd) of 440 nM.

GKMLFRVTIGKWK [668] showed a Kd of 130 nM.

As for EKMLFKVTIQKWK [714], the dissociation constant Kd turned out to be 220 nM.

Turning to DLMLFRVTINSWK [657], the Kd was 70 nM.

RLMLFRVTINSWK [651] registered a Kd of 40 nM.

Molecule DKLLFKVTIGKYK [751] had a dissociation constant Kd of 610 nM.

Molecule GKMKFRVTIQSWK [716] gave a Kd of 290 nM.

In turn, EKMLFRVTIGKWK [708] returned a Kd of 280 nM.

The molecule DKMLFRVTIESWK [722] had a Kd of 17800 nM.

For GKMNFRVTINSWK [618], the Kd was found to be 2690 nM.

As for EKMLFRVTIEKWK [707], the Kd came out at 1120 nM.

GKMLFRVWINSWK [615] came in with a Kd of 350 nM.

Molecule DKMLFKVTIEKWK [752] came in with a Kd of 320 nM.

Consider DKMLFTVTIGKWK [749], for which the dissociation constant (Kd) was determined as 1700 nM.

Take GKMKFRVTIKSWK [718]: the Kd came out at 380 nM.

The next assay shares this target. Put plainly: luminescence complementation. Particulars: modification not given. This is another data set of the same source.
GKMLFRVTIGKWK [668]: the Kd was found to be 60 nM.

For a further assay the target is unchanged. Put plainly: luminescence complementation; SmTrip9 Kd. To be noted: modification not given. The source holds these as a separate data set.
Turning to GKMLFKVTINKWK [781], the equilibrium dissociation constant (Kd) came to 380 nM.

The molecule DKMLFTVTINKWK [786] had a Kd of 500 nM.

For the molecule GKMLFTVTINKWK [782], the dissociation constant (Kd) was 360 nM.

On to DKMLFKVTIEKYK [785], for which the Kd came to 380 nM.

As to DKMLFKVTIQKYK [783], the Kd was 240 nM.

The molecule DKLLFTVTIGKYK [794] registered a Kd of 230 nM.

On to DKLLFTVTIEKWK [758], for which the dissociation constant (Kd) turned out to be 190 nM.

DKLLFTVTINKYK [800] gave a dissociation constant Kd of 9750 nM.

Molecule KKLLFRVTIQKWK [761] yielded an equilibrium dissociation constant (Kd) of 20 nM.

DKMLFTVTIEKWK [753] came in with a dissociation constant (Kd) of 150 nM.

DRMLFRVTIERWR [770]: the Kd is 350 nM.

DKLLFTVTIEKYK [759] returned a Kd of 560 nM.

Consider DKMLFRVTIQKWK [738], for which the Kd was 110 nM.

DKMLFRVTIEKWK [742]: the Kd was found to be 1000 nM.

Molecule DRMLFRVTIQRWR [762] registered a Kd of 120 nM.

On to DKMLFKVTINKWK [787], for which the Kd worked out at 730 nM.

DKLLFTVTIQKYK [757] gave a Kd of 190 nM.

For DKLLFTVTIGKWK [793], the Kd was found to be 540 nM.

As to KKMLFRVTIQKWK [760], the Kd was found to be 20 nM.

GRMLFRVTINRWR [768] gave a Kd of 100 nM.

In the case of ERMLFRVTIGRWR [766], the dissociation constant Kd amounted to 70 nM.

As for DKMLFRVTINKWK [784], the Kd amounted to 410 nM.

DKMLFTVTIGKWK [749] registered a Kd of 1060 nM.

As for DKLLFTVTINKWK [799], the Kd amounted to 210 nM.

A further assay shares this target. Put plainly: luminescence complementation; SmTrip9 Kd. Particulars: modification not given. The source holds these as a separate data set.
Molecule DKLLFTVTIEKWK [758] registered a Kd of 520 nM.
